According to the Immune Epitope Database (IEDB):

Experiments:
[1] = target: HLA-B*57:01; experiment: IEDB peptide-MHC binding, purified MHC/competitive/radioactivity; filed as Kd, often an IC50 or EC50 that approximates it; ≥ and ≤ were set here for values at or beyond the usual limits of such assays
[2] = target: HLA-B*58:01; experiment: as above
[3] = target: HLA-A*32:01; experiment: as above
[4] = target: HLA-B*53:01; experiment: as above; conditions: source organism: Dengue virus 4 Philippines/H241/1956
[5] = target: HLA-A*68:02; experiment: as above; conditions: source organism: Dengue virus 4 Philippines/H241/1956
[6] = target: HLA-A*01:01; experiment: as above; conditions: source organism: Dengue virus 2 Jamaica/1409/1983
[7] = target: HLA-A*26:01; experiment: IEDB peptide-MHC binding, purified MHC/competitive/fluorescence; filed as Kd, often an IC50 or EC50 that approximates it; ≥ and ≤ were set here for values at or beyond the usual limits of such assays
[8] = target: HLA-B*27:03; experiment: as above
[9] = target: HLA-B*51:01; experiment: as above
[10] = target: HLA-B*15:17; experiment: as above
[11] = target: HLA-A*24:03; experiment: IEDB peptide-MHC binding, purified MHC/direct/fluorescence; filed as Kd, often an IC50 or EC50 that approximates it; ≥ and ≤ were set here for values at or beyond the usual limits of such assays; conditions: source organism: Zaire ebolavirus
[12] = target: HLA-A*11:01; experiment: as above; conditions: source organism: Ebola virus - Gabon (1994-1997)
[13] = target: HLA-B*39:01; experiment: as above; conditions: source organism: Ebola virus - Gabon (1994-1997)
[14] = target: HLA-B*18:01; experiment: as above; conditions: source organism: Ebola virus - Gabon (1994-1997)
[15] = target: HLA-B*15:01; experiment: as above; conditions: source organism: Ebola virus - Gabon (1994-1997)
[16] = target: HLA-B*57:01; experiment: as above; conditions: source organism: Ebola virus - Gabon (1994-1997)
[17] = target: HLA-A*29:02; experiment: as above; conditions: source organism: Ebola virus - Gabon (1994-1997)
[18] = target: HLA-B*07:02; experiment: as above; conditions: source organism: Ebola virus - Gabon (1994-1997)
[19] = target: HLA-A*01:01; experiment: as above; conditions: source organism: Ebola virus - Gabon (1994-1997)
[20] = target: HLA-B*40:01; experiment: as above; conditions: source organism: Ebola virus - Gabon (1994-1997)
[21] = target: HLA-A*69:01; experiment: as above; conditions: source organism: Ebola virus - Gabon (1994-1997)
[22] = target: HLA-A*02:12; experiment: as above; conditions: source organism: Zaire ebolavirus
[23] = target: HLA-A*23:01; experiment: as above; conditions: source organism: Zaire ebolavirus
[24] = target: HLA-A*68:02; experiment: as above; conditions: source organism: Zaire ebolavirus
[25] = target: HLA-A*03:01; experiment: as above; conditions: source organism: Ebola virus - Gabon (1994-1997)
[26] = target: HLA-B*46:01; experiment: as above; conditions: source organism: Ebola virus - Gabon (1994-1997)
[27] = target: HLA-B*27:05; experiment: as above; conditions: source organism: Ebola virus - Gabon (1994-1997)
[28] = target: HLA-B*58:01; experiment: as above; conditions: source organism: Ebola virus - Gabon (1994-1997)
[29] = target: HLA-A*02:01; experiment: as above; conditions: source organism: Ebola virus - Gabon (1994-1997)
[30] = target: HLA-B*44:02; experiment: as above; conditions: source organism: Ebola virus - Gabon (1994-1997)
[31] = target: HLA-A*01:01; experiment: IEDB peptide-MHC binding, purified MHC/competitive/fluorescence; ≥ and ≤ were set here for values at or beyond the usual limits of such assays
[32] = target: HLA-A*02:01; experiment: as above; conditions: source organism: Sudan ebolavirus
[33] = target: HLA-A*24:03; experiment: IEDB peptide-MHC binding, purified MHC/competitive/fluorescence; filed as Kd, often an IC50 or EC50 that approximates it; ≥ and ≤ were set here for values at or beyond the usual limits of such assays
[34] = target: HLA-B*39:01; experiment: as above
[35] = target: HLA-B*18:01; experiment: as above
[36] = target: HLA-B*15:01; experiment: as above
[37] = target: HLA-B*57:01; experiment: as above
[38] = target: HLA-A*29:02; experiment: as above
[39] = target: HLA-A*23:01; experiment: as above
[40] = target: HLA-A*03:01; experiment: as above
[41] = target: HLA-B*46:01; experiment: as above
[42] = target: HLA-A*02:19; experiment: as above
[43] = target: HLA-A*02:01; experiment: as above
[44] = target: HLA-A*02:12; experiment: as above; conditions: source organism: Listeria welshimeri serovar 6b str. SLCC5334
[45] = target: HLA-A*11:01; experiment: IEDB peptide-MHC binding, purified MHC/competitive/fluorescence; ≥ and ≤ were set here for values at or beyond the usual limits of such assays; conditions: source organism: Vaccinia virus
[46] = source organism: Dengue virus 2 Jamaica/1409/1983
[47] = source organism: Dengue virus 4 Philippines/H241/1956
[48] = source organism: Zaire ebolavirus
[49] = source organism: Dengue virus 3 Martinique/1243/1999
[50] = source organism: Shigella boydii CDC 3083-94
[51] = source organism: Listeria welshimeri serovar 6b str. SLCC5334

TASGKLITEW
Kd [1, 46]: 0.0497 µM | Kd [2, 46]: 0.163 µM

MVMTTTANW
Kd [3, 47]: 0.0263 µM | Kd [1, 47]: 0.011 µM | Kd [4]: 0.00345 µM | Kd [2, 47]: 0.0162 µM

IGLSSRATW
Kd [1, 47]: 0.0481 µM | Kd [2, 47]: 0.00663 µM

LASMAICSAV
Kd [1, 47]: ≥ 21.9 µM | Kd [5]: 0.0262 µM | Kd [2, 47]: 0.586 µM

STSLSVSLVL
Kd [1, 46]: 0.667 µM | Kd [6]: 12 µM

AKATGRYNL
Kd [7, 48]: ≥ 20 µM | Kd [8, 48]: ≥ 20 µM | Kd [9, 48]: ≥ 20 µM | Kd [10, 48]: ≥ 20 µM | Kd [11]: ≥ 20 µM | Kd [12]: ≥ 20 µM | Kd [13]: 0.78 µM | Kd [14]: ≥ 20 µM | Kd [15]: ≥ 20 µM | Kd [16]: ≥ 20 µM | Kd [17]: ≥ 20 µM | Kd [18]: ≥ 20 µM | Kd [19]: ≥ 20 µM | Kd [20]: ≥ 20 µM | Kd [21]: ≥ 20 µM | Kd [22]: ≥ 20 µM | Kd [23]: ≥ 20 µM | Kd [24]: ≥ 20 µM | Kd [25]: ≥ 20 µM | Kd [26]: ≥ 20 µM | Kd [27]: ≥ 20 µM | Kd [28]: ≥ 20 µM | Kd [29]: ≥ 20 µM | Kd [30]: ≥ 20 µM

NSSFIIDGPN
Kd [1, 49]: 0.142 µM | Kd [2, 49]: 0.00543 µM

VTEIDQLVC
IC50 ([31]; source organism: Sudan ebolavirus): 34.2 µM | IC50 [32]: ≥ 322 µM

RVWIQENPW
Kd [3, 46]: 0.0224 µM | Kd [1, 46]: 0.00787 µM | Kd [2, 46]: 0.0034 µM

MAMTGLPQA
Kd [7, 50]: ≥ 20 µM | Kd [33, 50]: ≥ 20 µM | Kd [8, 50]: ≥ 20 µM | Kd [34, 50]: ≥ 20 µM | Kd [35, 50]: ≥ 20 µM | Kd [36, 50]: ≥ 20 µM | Kd [37, 50]: ≥ 20 µM | Kd [38, 50]: ≥ 20 µM | Kd [10, 50]: ≥ 20 µM | Kd [39, 50]: ≥ 20 µM | Kd [40, 50]: ≥ 20 µM | Kd [41, 50]: ≥ 20 µM | Kd [42, 50]: 0.0003 µM | Kd [43, 50]: 0.0008 µM

ELYENKPDV
Kd [7, 51]: ≥ 20 µM | Kd [33, 51]: ≥ 20 µM | Kd [8, 51]: ≥ 20 µM | Kd [34, 51]: ≥ 20 µM | Kd [9, 51]: ≥ 20 µM | Kd [35, 51]: ≥ 20 µM | Kd [36, 51]: ≥ 20 µM | Kd [37, 51]: ≥ 20 µM | Kd [38, 51]: ≥ 20 µM | Kd [44]: ≥ 20 µM | Kd [39, 51]: ≥ 20 µM | Kd [40, 51]: ≥ 20 µM | Kd [41, 51]: ≥ 20 µM | Kd [42, 51]: 0.303 µM | Kd [43, 51]: 0.515 µM

GTEKEFLRY
IC50 [45]: 11.5 µM | IC50 ([31]; source organism: Vaccinia virus): 6.64 µM
